Changes are numbered by the printed parent chain. In names and notes the source's numbering stands. Read-outs that look alike come from different tables or passages of the source.
Experiments:
[1] = biological target: T1, recombinant human IL-8, (ser-IL-8)72 (human, UniProt P10145); test: inhibition of 125I-IL-8 binding to human neutrophils
[2] = biological target: T1, recombinant human IL-8, (ser-IL-8)72; test: as above; remark: listed apart in the source
[3] = biological target: T1, recombinant human IL-8, (ser-IL-8)72; test: 125I-IL-8 neutrophil competition; against F(ab)-1
[4] = biological target: IL-8 binding to IL-8 receptors on human neutrophils (Homo sapiens, UniProt P10145); test: inhibition of 125I-IL-8 binding to human neutrophils (competition binding assay); conditions: for IC50: humanized 6G425 variants, Table 4, read-out: IC50 Mean (concentration of variant necessary to inhibit binding of iodinated IL8 to human neutrophils)
[5] = biological target: T1, recombinant human IL-8, (ser-IL-8)72
[6] = biological target: T1, recombinant human IL-8, (ser-IL-8)72; test: competitive binding RIP, Scatchard
[7] = biological target: T1, recombinant human IL-8, (ser-IL-8)72; remark: listed apart in the source
[8] = biological target: human monomeric IL-8 (human)
[9] = biological target: rhesus IL-8 (rhesus, UniProt P67813); test: cell-based or functional assay
[10] = biological target: T1, recombinant human IL-8, (ser-IL-8)72; remark: listed apart in the source
[11] = biological target: human monomeric IL-8 (human); remark: listed apart in the source
[12] = biological target: T2, rabbit IL-8 (rabbit, UniProt P19874); test: cell-based or functional assay
T2 sequence: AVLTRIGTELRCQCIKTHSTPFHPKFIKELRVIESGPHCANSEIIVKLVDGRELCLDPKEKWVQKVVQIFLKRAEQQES

[13] = biological target: T1, recombinant human IL-8, (ser-IL-8)72; test: competition phage ELISA (K64C IL-8 coated, free IL-8)
Text: The first step of the assay requires that the concentrations of the phage carrying the wild type and mutated antibodies be normalized, allowing a comparison of the relative affinities of each antibody.

[14] = biological target: IL-8 (Homo sapiens, UniProt P10145); test: human (wild type) IL-8 mediated neutrophil chemotaxis; format: cell-based
Method: Human neutrophils were isolated, counted and resuspended at 5×10^6 cells/ml in Hank's balanced salt solution (abbreviated HBSS; without calcium and magnesium) with 0.1% bovine serum albumin. The neutrophils were labeled by adding calcein AM (Molecular Probe, Eugene, Oreg.) at a final concentration of 2.0 μM. Following a 30 minute incubation at 37° C., cells were washed twice with HBSS-BSA and resuspended at 5×10^6 cells/ml.
Chemotaxis experiments were carried out in a Neuro Probe (Cabin John, Md.) 96-well chamber, model MBB96. […] 100 μl of the calcein AM-labeled neutrophils were added to the upper chambers and allowed to migrate through a 5 micrometer porosity PVP free polycarbonate framed filter (Neuro Probe Inc.) toward the bottom chamber sample. The chemotaxis apparatus was then incubated for 40 to 60 minutes at 37° C. with 5% CO2. At the end of the incubation, neutrophils remaining in the upper chamber were aspirated and upper chambers were washed three times with PBS. Then the polycarbonate filter was removed, non-migrating cells were wiped off with a squeegee wetted with PBS, and the filter was air dried for 15 minutes.
The relative number of neutrophils migrating through the filter (Neutrophil migration index) was determined by measuring fluorescence intensity of the filter and the fluorescence intensity of the contents of the lower chamber and adding the two values together. Fluorescence intensity was measured with a CytoFluor 2300 fluorescent plate reader (Millipore Corp. Bedford, Mass.) configured to read a Corning 96-well plate using the 485-20 nm excitation filter and a 530-25 emission filter, with the sensitivity set at 3.
The affinity matured Fab variant, 6G4V11N35E, was tested for its ability to inhibit IL-8 mediated neutrophil chemotaxis as described in Section (B)(2) above. The reuseable 96-well chemotaxis chamber described in Section (B)(2) was replaced with endotoxin-free disposable chemotaxis chambers containing 5-micron PVP-free polycarbonate filters (ChemoTx101-5, Neuro Probe, Inc. Cabin John, Md.).

rhu4D5 F(ab) (Fab)
IC50 [1]: > 200000 nM

B1: humanized 6G425 F(ab)-2 (Fab, V domains shown)
VH: EVQLVESGGGLVQPGGSLRLSCAASGYSFSSHYMHWVRQAPGKGLEWVGYIDPSNGETTYNQKFKGRATISRDNSKNTLYLQMNSLRAEDTAVYYCAARGDYRYNGDWFFDVWGQGT
VL: DIQMTQSPSSLSASVGDRVTITCRSSQSLVHGIGNTYLHWYQQKPGKAPKLLIYYKVSNRFSGVPSRFSGSGSGTDFTLTISSLQPEDFATYYCSQSTHVPLTFGQGTKVEIKR
IC50 [2]: 106 nM
fold decrease in IL-8 binding [3]: < 2 fold

B2: F(ab)-6: humanized variant, F(ab)-1 with IleH69Leu and LeuH78Ala (antibody, V domains shown)
VL: B1 VL
VH: B1 VH with A68F, I70L, L79A
increase in affinity for IL-8 ([4]; compared to F(ab)-1): approximately 2 fold
IC50 [4]: 34.6 nM

B3: F(ab)-7: humanized variant, F(ab)-6 with LeuH80Val (antibody, V domains shown)
VL: B1 VL
VH: B1 VH with A68F, I70L, L79A, L81V
IC50 [4]: 38.4 nM

B4: humanized 6G425 F(ab)-3 (Fab, V domains shown)
VH: B1 VH with A68F, R72V
VL: B1 VL
IC50 [2]: 79.8 nM
fold decrease in IL-8 binding [3]: < 2 fold

B5: monoclonal antibody 5.12.14 (antibody, V domains shown)
VH: EVQLVESGGGLVPPGGSLKLSCAASGFIFSSYGMSWVRQTPGKSLELVATINNNGDSTYYPDSVKGRFTISRDNAKNTLYLQMSSLKSEDTAMFYCARALISSATWFGYWGQGTLVTVSA
VL: DIVMTQSQKFMSTSVGDRVSVTCKASQNVGTNVAWYQQKPGQSPKALIYSSSYRYSGVPDRFTGSGSGTDFTLTISHVQSEDLADYFCQQYNIYPLTFGPGTKLELKR
neutrophil chemotaxis induced by IL-8 (Boyden chamber) [5]: 70%
Kd [6]: 0.3 nM

B6: humanized 6G425 F(ab)-9 (Fab, V domains shown)
VH: EVQLVQSGGGLVQPGGSLRLSCAASGYSFSSHYMHWVRQAPGKGLEWVGYIDPSNGETTYNQKFKGRFTLSRDNSKNTAYLQMNSLRAEDTAVYYCARGDYRYNGDWFFDVWGQGTLVTVSS
VL: DIQMTQSPSSLSASVGDRVTITCRSSQSLVHGIGNTYLHWYQQKPGKAPKLLIYKVSNRFSGVPSRFSGSGSGTDFTLTISSLQPEDFATYYCSQSTHVPLTFGQGTKVEIKR
IC50, IL-8 mediated neutrophil chemotaxis [7]: 12 nM
IC50, IL-8 mediated neutrophil chemotaxis [8]: 15 nM
IC50, IL-8 mediated neutrophil chemotaxis [9]: ~22 nM

B7: humanized 6G425 F(ab)-8 (Fab, V domains shown)
VH: B6 VH with Q6E, R38K
VL: B6 VL
IC50, IL-8 mediated neutrophil chemotaxis [9]: 10 nM

B8: 6G4V11N35A F(ab')2 leucine zipper (antibody, V domains shown)
VH: B6 VH
VL: B6 VL with N35A
IC50, human IL-8 mediated neutrophil chemotaxis [10]: 1.5 nM
IC50, IL-8 mediated neutrophil chemotaxis [11]: 1 nM
IC50, IL-8 mediated neutrophil chemotaxis [12]: 4 nM

B9: h6G4V11 alanine mutant Y37A (CDR-L1) (Fab, V domains shown)
VH: B6 VH
VL: B6 VL with Y37A
binding result [13]: no binding

B10: h6G4V11 alanine mutant H98A (CDR-L3) (Fab, V domains shown)
VH: B6 VH
VL: B6 VL with H98A
IC50 [13]: 8 nM

B11: 6G4.2.5 Fab: recombinant human-murine chimeric Fab of 6G4.2.5 (protein)
light: DIVMTQTPLSLPVSLGDQASISCRSSQSLVHGIGNTYLHWYLQKPGQSPKLLIYKVSNRFSGVPDRFSGSGSGTDFTLRISRVEAEDLGLYFCSQSTHVPLTFGAGTKLELKRAVAAPTVFIFPPSSEQLKSGTASVVCLLNNFYPREAKVQWKVDNALQSGNSQESVTEQDSKDSTYSLSSTLTLSKADYEKHKVYACEVTHQGLSSPVTKSFNRGEC
heavy: EIQLQQSGPELMKPGASVKISCKASGYSFSSHYMHWVKQSHGKSLEWIGYIDPSNGETTYNQKFKGKATLTVDTSSSTANVHLSSLTSDDSAVYFCARGDYRYNGDWFFDVWGAGTTVTVSSASTKGPSVFPLAPSSKSTSGGTAALGCLVKDYFPEPVTVSWNSGALTSGVHTFPAVLQSSGLYSLSSVVTVPSSSLGTQTYICNVNHKPSNTKVDKKVEPKSCDKTHT
inhibition of human IL-8 mediated neutrophil chemotaxis / migration [14]: demonstrates the inhibition of human IL-8 mediated neutrophil chemotaxis

B12: F(ab)-8: humanized variant, F(ab)-6 with ArgH38Lys (protein)
light: DIQMTQSPSSLSASVGDRVTITCRSSQSLVHGIGNTYLHWYQQKPGKAPKLLIYKVSNRFSGVPSRFSGSGSGTDFTLTISSLQPEDFATYYCSQSTHVPLTFGQGTKVEIKRTVAAPSVFIFPPSDEQLKSGTASVVCLLNNFYPREAKVQWKVDNALQSGNSQESVTEQDSKDSTYSLSSTLTLSKADYEKHKVYACEVTHQGLSSPVTKSFNRGEC
heavy: EVQLVESGGGLVQPGGSLRLSCAASGYSFSSHYMHWVKQAPGKGLEWVGYIDPSNGETTYNQKFKGRFTLSRDNSKNTAYLQMNSLRAEDTAVYYCARGDYRYNGDWFFDVWGQGTLVTVSSASTKGPSVFPLAPSSKSTSGGTAALGCLVKDYFPEPVTVSWNSGALTSGVHTFPAVLQSSGLYSLSSVVTVPSSSLGTQTYICNVNHKPSNTKVDKKVEPKSCDKTHT
IC50 ([14]; read-out: IC50, human wild type IL-8 mediated neutrophil chemotaxis): 12 nM

B13: 6G4V11N35E Fab: affinity matured variant of humanized 6G4V11 Fab with Glu at position 35 of CDR-L1 (protein)
light: B12 light with N35E
heavy: B12 heavy with E6Q, K38R
IC50 ([14]; 2 nM IL-8, disposable chemotaxis chambers, read-out: IC50, human IL-8 mediated neutrophil chemotaxis): ~1.2 nM
inhibition of chemotaxis at 3.7 nM-33 nM ([14]; 2 nM stimulus of rabbit or human IL-8, compared with buffer control): could completely inhibit this response

B14: 5.12.14 Fab: recombinant human-murine chimeric Fab of 5.12.14 (protein)
light: DIVMTQSQKFMSTSVGDRVSVTCKASQNVGTNVAWYQQKPGQSPKALIYSSSYRYSGVPDRFTGSGSGTDFTLTISHVQSEDLADYFCQQYNIYPLTFGPGTKLELRRAVAAPSVFIFPPSDEQLKSGTASVVCLLNNFYPREAKVQWKVDNALQSGNSQESVTEQDSKDSTYSLSSTLTLSKADYEKHKVYACEVTHQGLSSPVTKSFNRGEC
heavy: EVQLVESGGGLVPPGGSLKLSCAASGFIFSSYGMSWVRQTPGKSLELVATINNNGDSTYYPDSVKGRFTISRDNAKNTLYLQMSSLKSEDTAMFYCARALISSATWFGYWGQGTLVTVSAASTKGPSVFPLAPSSKSTSGGTAALGCLVKDYFPEPVTVSWNSGALTSGVHTFPAVLQSSGLYSLSSVVTVPSSSLGTQTYICNVNHKPSNTKVDKKVEPKSCDKTHT
inhibition of human IL-8 mediated neutrophil chemotaxis / migration [14]: demonstrates the inhibition of human IL-8 mediated neutrophil chemotaxis

Source: patent publication US6025158A, “Nucleic acids encoding humanized anti-IL-8 monoclonal antibodies” (Genentech, Inc., dated 2000)
